Data on 22 molecules can be found in paper PMC4822050, “Hemi-methylated DNA opens a closed conformation of UHRF1 to facilitate its histone recognition” (Nature Communications, 2016).

The chains are these.
T1: SRA–Spacer of UHRF1 (residues 414–674) (human, UniProt Q96T88 414-674)
T1 sequence (looked up): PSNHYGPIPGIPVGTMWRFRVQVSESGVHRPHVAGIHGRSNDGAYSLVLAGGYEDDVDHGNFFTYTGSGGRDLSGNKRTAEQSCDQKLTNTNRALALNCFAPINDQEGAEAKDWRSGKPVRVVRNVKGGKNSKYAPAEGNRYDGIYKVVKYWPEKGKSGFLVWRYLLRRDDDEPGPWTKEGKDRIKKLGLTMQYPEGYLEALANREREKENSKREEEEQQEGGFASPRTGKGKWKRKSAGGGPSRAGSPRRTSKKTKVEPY

T2: TTD–PHD R295D/R296D (human, UniProt Q96T88 134-366, R295D | R296D)
T2 sequence (looked up): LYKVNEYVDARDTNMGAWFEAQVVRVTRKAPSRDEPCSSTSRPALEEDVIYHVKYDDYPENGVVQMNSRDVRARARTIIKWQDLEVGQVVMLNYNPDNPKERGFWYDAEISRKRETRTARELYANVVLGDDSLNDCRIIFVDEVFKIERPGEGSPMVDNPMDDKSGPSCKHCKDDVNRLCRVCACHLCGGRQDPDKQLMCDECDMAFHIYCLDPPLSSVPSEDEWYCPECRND

T3: TTD–PHD of UHRF1 (residues 134–366) (human, UniProt Q96T88 134-366)
T3 sequence (looked up): T2 sequence (looked up) with D162R, D163R

T4: UHRF1^Δ627–674 (human, UniProt Q96T88 1-793, Δ627–674)
T4 construct: also called spacer deletion mutant
T4 sequence (looked up): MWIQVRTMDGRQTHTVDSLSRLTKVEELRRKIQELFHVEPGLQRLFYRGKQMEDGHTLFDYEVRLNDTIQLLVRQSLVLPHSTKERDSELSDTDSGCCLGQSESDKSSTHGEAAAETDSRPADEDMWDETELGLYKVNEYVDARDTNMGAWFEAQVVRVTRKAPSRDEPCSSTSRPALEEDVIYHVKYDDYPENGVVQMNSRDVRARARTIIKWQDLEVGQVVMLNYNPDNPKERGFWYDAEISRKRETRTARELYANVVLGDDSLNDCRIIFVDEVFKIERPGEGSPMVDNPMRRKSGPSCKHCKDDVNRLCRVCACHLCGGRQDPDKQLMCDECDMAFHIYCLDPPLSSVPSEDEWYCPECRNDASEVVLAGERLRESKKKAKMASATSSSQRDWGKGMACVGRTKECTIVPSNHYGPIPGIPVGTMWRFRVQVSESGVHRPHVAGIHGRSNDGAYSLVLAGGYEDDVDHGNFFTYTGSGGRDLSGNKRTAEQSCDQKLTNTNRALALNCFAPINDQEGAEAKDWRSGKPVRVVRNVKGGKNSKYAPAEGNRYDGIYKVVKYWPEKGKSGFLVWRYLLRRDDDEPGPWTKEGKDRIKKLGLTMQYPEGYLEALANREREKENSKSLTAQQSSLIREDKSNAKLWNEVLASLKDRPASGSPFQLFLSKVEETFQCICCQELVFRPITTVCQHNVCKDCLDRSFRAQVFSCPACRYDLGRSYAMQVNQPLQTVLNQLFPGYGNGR

T5: SRA of UHRF1 (residues 414–617) (human, UniProt Q96T88 414-617)
T5 construct: human UHRF1, SRA domain, residues 414–617; also called SET-and-RING-associated domain
T5 sequence (looked up): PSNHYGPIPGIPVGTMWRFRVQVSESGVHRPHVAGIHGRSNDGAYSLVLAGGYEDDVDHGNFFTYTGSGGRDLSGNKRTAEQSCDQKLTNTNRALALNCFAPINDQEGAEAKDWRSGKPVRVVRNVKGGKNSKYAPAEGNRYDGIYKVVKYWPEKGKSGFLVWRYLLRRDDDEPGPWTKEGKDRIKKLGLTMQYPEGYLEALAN

B1: replication focus targeting sequence (RFTS) of DNMT1 (domain or fragment, UniProt P26358 400-533, looked up)
chain: EALPQHKLTCFSVYCKHGHLCPIDTGLIEKNIELFFSGSAKPIYDDDPSLEGGVNGKNLGPINEWWITGFDGGEKALIGFSTSFAEYILMDPSPEYAPIFGLMQEKIYISKIVVEFLQSNSDSTYEDLINKIET
notes: DNMT1, RFTS domain; also called RFTS^DNMT1
B2: Spacer of UHRF1 (residues 587–674) (domain or fragment, human, UniProt Q96T88 587-674, looked up)
chain: PGPWTKEGKDRIKKLGLTMQYPEGYLEALANREREKENSKREEEEQQEGGFASPRTGKGKWKRKSAGGGPSRAGSPRRTSKKTKVEPY
notes: also called the Spacer; Spacer peptide
B3: GST-tagged Spacer of UHRF1 (domain or fragment, human, UniProt Q96T88 587-674, looked up)
chain: B2 chain
notes: also called GST-Spacer
B4: Spacer S666D (domain or fragment, human, UniProt Q96T88 587-674, looked up)
chain: B2 chain with S80D
B5: Spacer S639D (domain or fragment, human, UniProt Q96T88 587-674, looked up)
chain: B2 chain with S53D
B6: Spacer K648D (domain or fragment, human, UniProt Q96T88 587-674, looked up)
chain: B2 chain with K62D
B7: Spacer S651D (domain or fragment, human, UniProt Q96T88 587-674, looked up)
chain: B2 chain with S65D
B8: Spacer R649A (domain or fragment, human, UniProt Q96T88 587-674, looked up)
chain: B2 chain with R63A
B9: TTD of UHRF1 (residues 134–285) (domain or fragment, human, UniProt Q96T88 134-285, looked up)
chain: LYKVNEYVDARDTNMGAWFEAQVVRVTRKAPSRDEPCSSTSRPALEEDVIYHVKYDDYPENGVVQMNSRDVRARARTIIKWQDLEVGQVVMLNYNPDNPKERGFWYDAEISRKRETRTARELYANVVLGDDSLNDCRIIFVDEVFKIERPGE
notes: 15N- or 13C/15N-labelled for the NMR work; also called tandem Tudor domain; the isolated TTD
B10: GST-tagged TTD of UHRF1 (domain or fragment, human, UniProt Q96T88 134-285, looked up)
chain: B9 chain
notes: pGEX-6p-1 derivative vector; also called GST-TTD
B11: truncated Spacer (residues 627–674) (domain or fragment, human, UniProt Q96T88 627-674, looked up)
chain: REEEEQQEGGFASPRTGKGKWKRKSAGGGPSRAGSPRRTSKKTKVEPY
notes: modified pRSF-Duet-1 vector; unlabelled or 15N-labelled in the NMR samples; residues 643–655 were built in the model
B12: PHD of UHRF1 (residues 307–366) (domain or fragment, human, UniProt Q96T88 307-366, looked up)
chain: DDVNRLCRVCACHLCGGRQDPDKQLMCDECDMAFHIYCLDPPLSSVPSEDEWYCPECRND
notes: human UHRF1, PHD, residues 307–366; also called plant homeodomain; the isolated PHD
B13: GST-tagged TTD–PHD of UHRF1 (domain or fragment, human, UniProt Q96T88 134-366, looked up)
chain: T2 sequence (looked up) with D162R, D163R
notes: also called GST-TTD–PHD
B14: Spacer^Δ642–651 (domain or fragment, human, UniProt Q96T88 587-674, looked up)
chain: PGPWTKEGKDRIKKLGLTMQYPEGYLEALANREREKENSKREEEEQQEGGFASPRAGGGPSRAGSPRRTSKKTKVEPY
B15: Spacer^Δ660–664 (domain or fragment, human, UniProt Q96T88 587-674, looked up)
chain: PGPWTKEGKDRIKKLGLTMQYPEGYLEALANREREKENSKREEEEQQEGGFASPRTGKGKWKRKSAGGGPSRATSKKTKVEPY
B16: Spacer^Δ655–659 (domain or fragment, human, UniProt Q96T88 587-674, looked up)
chain: B15 chain with P70S, S71P, A73R
B17: Spacer^Δ670–674 (domain or fragment, human, UniProt Q96T88 587-674, looked up)
chain: B15 chain with T74G, K76P, K77R, T78R, K79T, V80S, E81K, P82K, Y83T
B18: Spacer^Δ650–654 (domain or fragment, human, UniProt Q96T88 587-674, looked up)
chain: B15 chain with K64G, S65P, A66S, G67R, G68A, P70S, S71P, A73R
B19: Spacer^Δ665–669 (domain or fragment, human, UniProt Q96T88 587-674, looked up)
chain: B15 chain with T74G, K76P, K77R, T78R

Numbering of substitutions follows the chain as printed. Names may count otherwise. “And” between values parts separate entries of the source, which are not always exact repeats. Identical values can stand only once.

Details in all cases: both partners purified
Test [1] deals with T1, SRA–Spacer of UHRF1 (residues 414–674). As to the kind of experiment: ITC; 0.05 mM protein in the cell, 0.5 mM protein or peptide in the syringe, iTC200, 18 °C, 10 mM HEPES pH 8.0, 100 mM NaCl. For orientation: ITC needs no label: the signal is the heat of the interaction.
In test [2] the target is B9. As to the kind of experiment: ITC; competition ITC: protein pre-incubated with the competing peptide or protein (1:2 molar ratio if not specified) for 10 min, then as a3.
The target in a further test is T2, TTD–PHD R295D/R296D. As to the kind of experiment: ITC; 0.05 mM protein in the cell, 0.5 mM protein or peptide in the syringe, iTC200, 18 °C, 10 mM HEPES pH 8.0, 100 mM NaCl.
Test [3] concerns the target T3, TTD–PHD of UHRF1 (residues 134–366). The description is as above.
Test [4] addresses B9. The test is described as above.
The next test has as its target T4, UHRF1^Δ627–674. The test is described as follows: pull-down; GST pull-down: 15 μg GST-tagged protein with 40 μg recombinant protein in 500 μl 20 mM HEPES-NaOH pH 8.0, 100 mM NaCl, 5% glycerol, 0.1% Triton X-100, 4 °C, glutathione resin, Coomassie staining; some panels with increasing hm-DNA.
Test [5] concerns the target T1, SRA–Spacer of UHRF1 (residues 414–674). Described as above.
Test [6] addresses B9. As to the kind of experiment: NMR solution structure; TTD/Spacer (627–674) 1:1.2, PBS, 0.01% NaN3, pH 7.4, 10% D2O, 20 °C.
Test [7] deals with T5, SRA of UHRF1 (residues 414–617). As to the kind of experiment: ITC; 0.05 mM protein in the cell, 0.5 mM protein or peptide in the syringe, iTC200, 18 °C, 10 mM HEPES pH 8.0, 100 mM NaCl.

In general, Kd refers to the constant that tells how readily two partners part at equilibrium. High values mean weaker binding, low ones tighter binding. In general, stoichiometry N refers to a count of units in the complex or per binding partner.

B1 showed an equilibrium dissociation constant (Kd) in test [1] of 7.09 µM.
For B2, in test [2], the “fold decrease in binding affinity in the presence of the Linker” value stood at 2 fold. Moreover, the Kd with TTD–PHD R295D/R296D is 2.69 µM; in test [3] it was 10.7 µM; in test [4], 1.48 µM and 1.59 µM. In addition, the “stoichiometry N” value in test [4] was found to be 1.
Take B3: the binding result with UHRF1^Δ627–674 is “binds”.
For the molecule B4, the binding result in test [4] is given as “binds”.
On to B5, for which the binding result in test [4] was “binds”.
For the molecule B6, the binding result in test [4] is given as “binds”.
On the same count and under the same terms, the result for B7 reads “binds”.
Consider B8, for which the “fold decrease in binding affinity against the wild-type Spacer” value in [4] was about 13 fold.
With B9, the binding result in [1] is given as “binds”.
As for B10, the binding result in [5] was “binds”.
Consider B11, for which the binding result in test [6] is “binds”.
B12: binding in [7] was characterised by a dissociation constant (Kd) of 26.7 µM.
As to B13, the binding result in test [5] was “binds”.
Consider B14, for which the binding result in test [4] is “binds”.
For TGKGKWKRKSAGGGPSRAGSPRRTSKKTKVEPY (domain or fragment, human, UniProt Q96T88 642-674, looked up) [Spacer^642–674], the binding result in test [4] is given as “binds”.
On the same count and under the same terms, the result for B15 reads “binds”.
For B16, in test [4], the binding result was “binds”.
Turning to B17, the binding result in test [4] was “binds”.
Turning to B18, the binding result in test [4] was “binds”.
Still for that read-out and setting: under B19 stands “binds”; under TGKGKWKRKSAGGGPSRAGSPRR (peptide, UniProt Q96T88 642-664, looked up) [unmodified peptide of Spacer^642–664], “binds”.
With MVDNPMRRKSGPSCKHCK (peptide, UniProt Q96T88 289-306, looked up, also called the Linker) [Linker peptide (289–306)], the affinity in test [4], expressed as Kd, was 24 µM.
